Each sequence was assayed on Escherichia coli TOP10 (assay: shrunken log2 fold change of peptide-encoding DNA abundance (4.5 h post-induction vs induction); higher = less antimicrobial activity (less host growth inhibition)). Settings: time post-induction: 4.5 h; library: site-saturation at positions 5, 18, 19, 20.
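Note: peptides expressed intracellularly from a pBAD plasmid library in pooled LB shake-flask culture, induced with 0.3% L-arabinose, DNA abundance read by NGS, three biological replicates, DESeq2 with apeglm shrinkage.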

Sequence | shrunken log2 fold change
RRIRMRPPRLPRPRPRPHIFPRP | -0.268
RRIRPRPPRLPRPRPRPEWWPRP | 0.0468
RRIRQRPPRLPRPRPRPCPSPRP | 0.0332
RRIRRRPPRLPRPRPRPRMSPRP | 0.938
RRIRKRPPRLPRPRPRPDIWPRP | 0.211
RRIRLRPPRLPRPRPRPEQHPRP | 0.243
RRIRFRPPRLPRPRPRPCHHPRP | -0.0196
RRIRCRPPRLPRPRPRPCPCPRP | -1.35
RRIRRRPPRLPRPRPRPGWIPRP | 0.442
RRIRERPPRLPRPRPRPPDNPRP | 0.197
RRIRPRPPRLPRPRPRPVHRPRP | 0.0193
RRIRRRPPRLPRPRPRPGTEPRP | 0.443
RRIRLRPPRLPRPRPRPVKWPRP | 0.215
RRIRARPPRLPRPRPRPQAIPRP | 0.281
RRIRWRPPRLPRPRPRPKIDPRP | 0.0747
RRIRVRPPRLPRPRPRPGEEPRP | 0.00621
RRIRWRPPRLPRPRPRPDNDPRP | -0.0628
RRIRMRPPRLPRPRPRPPQHPRP | 0.817
RRIRLRPPRLPRPRPRPGYVPRP | -0.17
RRIRPRPPRLPRPRPRPCYGPRP | 0.0701
RRIRWRPPRLPRPRPRPVPSPRP | 0.058
RRIRFRPPRLPRPRPRPNNHPRP | -0.571
RRIRARPPRLPRPRPRPPKDPRP | 1.78
RRIRERPPRLPRPRPRPNRIPRP | -0.0288
RRIRVRPPRLPRPRPRPTKNPRP | -0.00729

Sequence | shrunken log2 fold change
RRIRYRPPRLPRPRPRPIGWPRP | 0.11
RRIRARPPRLPRPRPRPGKNPRP | 0.124
RRIRYRPPRLPRPRPRPSWDPRP | -0.429
RRIRARPPRLPRPRPRPFHPPRP | -0.178
RRIRKRPPRLPRPRPRPNDIPRP | 0.0543
RRIRARPPRLPRPRPRPNAGPRP | 0.315
RRIRRRPPRLPRPRPRPPTSPRP | 0.54
RRIRARPPRLPRPRPRPSAGPRP | 0.65
RRIRHRPPRLPRPRPRPPPGPRP | 0.769
RRIRHRPPRLPRPRPRPWTFPRP | -0.229
RRIRRRPPRLPRPRPRPLCFPRP | 0.898
RRIRMRPPRLPRPRPRPVPSPRP | 0.588
RRIRWRPPRLPRPRPRPLMCPRP | 0.117
RRIRRRPPRLPRPRPRPPNIPRP | -0.0641
RRIRLRPPRLPRPRPRPEIFPRP | 0.161
RRIRGRPPRLPRPRPRPFDYPRP | -0.145
RRIRVRPPRLPRPRPRPMQSPRP | 0.292
RRIRERPPRLPRPRPRPHHHPRP | -0.58
RRIRLRPPRLPRPRPRPQIRPRP | -0.0176
RRIRFRPPRLPRPRPRPTGQPRP | 0.0488
RRIRHRPPRLPRPRPRPWHSPRP | -0.22
RRIRFRPPRLPRPRPRPWYSPRP | -0.0415
RRIRARPPRLPRPRPRPLDRPRP | -0.233
RRIRYRPPRLPRPRPRPQDFPRP | -0.481
RRIRVRPPRLPRPRPRPCANPRP | -0.129

Sequence | shrunken log2 fold change
RRIRHRPPRLPRPRPRPFPWPRP | -0.0989
RRIRTRPPRLPRPRPRPPMNPRP | -0.399
RRIRMRPPRLPRPRPRPCYLPRP | 0.0715
RRIRWRPPRLPRPRPRPIHDPRP | -0.118
RRIRLRPPRLPRPRPRPTIHPRP | -0.3
RRIRPRPPRLPRPRPRPLFDPRP | 0.0231
RRIRARPPRLPRPRPRPFQWPRP | -0.0629
RRIRKRPPRLPRPRPRPVCEPRP | 0.552
RRIRERPPRLPRPRPRPFLYPRP | -0.761
RRIRKRPPRLPRPRPRPCQPPRP | 0.227
RRIRFRPPRLPRPRPRPDNAPRP | -0.167
RRIRNRPPRLPRPRPRPTKSPRP | 0.141
RRIRCRPPRLPRPRPRPQFVPRP | -0.419
RRIRPRPPRLPRPRPRPYRDPRP | 0.0239
RRIRFRPPRLPRPRPRPISVPRP | 0.0197
RRIRCRPPRLPRPRPRPEYFPRP | -0.0582
RRIRVRPPRLPRPRPRPYYNPRP | -0.548
RRIRARPPRLPRPRPRPWDDPRP | 0.177
RRIRPRPPRLPRPRPRPYDMPRP | -0.748
RRIRSRPPRLPRPRPRPTWHPRP | 0.179
RRIRGRPPRLPRPRPRPHIVPRP | 0.106
RRIRLRPPRLPRPRPRPRKNPRP | 0.0496
RRIRKRPPRLPRPRPRPNVYPRP | -0.0771
RRIRHRPPRLPRPRPRPPENPRP | 0.116
RRIRPRPPRLPRPRPRPEKYPRP | -0.562

Sequence | shrunken log2 fold change
RRIRKRPPRLPRPRPRPVYTPRP | -0.356
RRIRVRPPRLPRPRPRPKFQPRP | -0.274
RRIRRRPPRLPRPRPRPTEDPRP | 0.477
RRIRGRPPRLPRPRPRPLSDPRP | 0.365
RRIRYRPPRLPRPRPRPKTFPRP | -0.251
RRIRMRPPRLPRPRPRPCNVPRP | 0.0415
RRIRMRPPRLPRPRPRPFEHPRP | -0.327
RRIRQRPPRLPRPRPRPCKWPRP | -0.0434
RRIRKRPPRLPRPRPRPFCFPRP | 1.24
RRIRWRPPRLPRPRPRPVYLPRP | -0.229
RRIRDRPPRLPRPRPRPHHMPRP | -0.128
RRIRQRPPRLPRPRPRPPAVPRP | 0.408
RRIRARPPRLPRPRPRPIHRPRP | -0.26
RRIRYRPPRLPRPRPRPSRSPRP | 0.134
RRIRHRPPRLPRPRPRPPMYPRP | -0.739
RRIRLRPPRLPRPRPRPTIVPRP | -0.183
RRIRYRPPRLPRPRPRPPYGPRP | -0.54
RRIRARPPRLPRPRPRPDYFPRP | -0.0428
RRIRTRPPRLPRPRPRPVNEPRP | -0.103
RRIRLRPPRLPRPRPRPDHTPRP | -0.0215
RRIRKRPPRLPRPRPRPDDKPRP | 0.107
RRIRCRPPRLPRPRPRPTPEPRP | 0.284
RRIRQRPPRLPRPRPRPNIMPRP | -0.462
RRIRARPPRLPRPRPRPKREPRP | 0.422
RRIRHRPPRLPRPRPRPHGKPRP | -0.038

Sequence | shrunken log2 fold change
RRIRMRPPRLPRPRPRPNRNPRP | -0.292
RRIRFRPPRLPRPRPRPMSRPRP | 0.0534
RRIRMRPPRLPRPRPRPCYDPRP | 0.0509
RRIRLRPPRLPRPRPRPDATPRP | 0.398
RRIRLRPPRLPRPRPRPWGYPRP | -0.359
RRIRKRPPRLPRPRPRPEVVPRP | 0.016
RRIRSRPPRLPRPRPRPMRWPRP | 0.664
RRIRDRPPRLPRPRPRPVQSPRP | -0.0116
RRIRMRPPRLPRPRPRPDACPRP | 1.97
RRIRCRPPRLPRPRPRPGNGPRP | 0.217
RRIRPRPPRLPRPRPRPKSAPRP | 0.532
RRIRRRPPRLPRPRPRPQPAPRP | 0.387
RRIRLRPPRLPRPRPRPIKNPRP | -0.317
RRIRFRPPRLPRPRPRPNVAPRP | 0.365
RRIRFRPPRLPRPRPRPHVMPRP | -0.288
RRIRRRPPRLPRPRPRPSEKPRP | 0.51
RRIRERPPRLPRPRPRPHMMPRP | -1.14
RRIRNRPPRLPRPRPRPGYIPRP | -1.11
RRIRKRPPRLPRPRPRPYCWPRP | -0.315
RRIRKRPPRLPRPRPRPMPTPRP | 0.0822
RRIRFRPPRLPRPRPRPTIQPRP | -0.266
RRIRIRPPRLPRPRPRPNWAPRP | 0.0373
RRIRPRPPRLPRPRPRPAQKPRP | 0.273
RRIRNRPPRLPRPRPRPGWIPRP | -0.265
RRIRRRPPRLPRPRPRPRPPPRP | 0.931

Sequence | shrunken log2 fold change
RRIRFRPPRLPRPRPRPEMLPRP | 0.0583
RRIRTRPPRLPRPRPRPDDCPRP | -0.0459
RRIRHRPPRLPRPRPRPYAEPRP | -0.0381
RRIRGRPPRLPRPRPRPHHKPRP | -0.122
RRIRRRPPRLPRPRPRPADVPRP | 0.146
RRIRNRPPRLPRPRPRPFETPRP | 0.0215
RRIRYRPPRLPRPRPRPKYNPRP | -1.24
RRIRWRPPRLPRPRPRPPDLPRP | 0.888
RRIRFRPPRLPRPRPRPCDAPRP | -0.312
RRIRCRPPRLPRPRPRPNQRPRP | -0.093
RRIRQRPPRLPRPRPRPFYGPRP | -0.00903
RRIRMRPPRLPRPRPRPKQLPRP | 0.83
RRIRPRPPRLPRPRPRPFMDPRP | -0.248
RRIRNRPPRLPRPRPRPRAYPRP | 0.0694
RRIRNRPPRLPRPRPRPTFTPRP | -0.245
RRIRTRPPRLPRPRPRPQDGPRP | -0.0217
RRIRCRPPRLPRPRPRPGGFPRP | 0.146
RRIRIRPPRLPRPRPRPFFKPRP | -0.629
RRIRYRPPRLPRPRPRPEICPRP | 0.0682
RRIRYRPPRLPRPRPRPMPIPRP | -0.16
RRIRARPPRLPRPRPRPSGHPRP | 0.168
RRIRIRPPRLPRPRPRPLCGPRP | -0.319
RRIRRRPPRLPRPRPRPFCYPRP | -0.00369
RRIRVRPPRLPRPRPRPLQRPRP | -0.0358
RRIRWRPPRLPRPRPRPQPLPRP | -0.0153
